The RNAGym collection of RNA variant scans (doi:10.1073/pnas.2313332121)

B1: TPR t1 (parent)
chain: GACCAAUCUGCCCUCAGAGCUCGAGAACAUCUUCGGAUGCAGAGGAGGCAGGCUUCGGUGGCGCGAUAGCGCCAACGUCCUCAACCUCCAAUGCAUCCCACCACAUGAUGAUGCCUGAAGAGCCUUGGUUUUUUG

Variants of: B1
Experiment: polymerase ribozyme fitness, log enrichment relative to wild type (log ratio); higher = more active; in vitro selection for triplet polymerase activity
Procedure, shortened: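 Both subunits of a heterodimeric triplet polymerase ribozyme were given their own mutant library, built by PCR and transcribed. Each library was annealed with a biotinylated primer, the partner subunit and triplets, incubated frozen at −7 °C, and its extended constructs gel-excised, captured on streptavidin beads and amplified by RT-PCR, all in one round done in triplicate. Fitness is the logarithm of genotype enrichment relative to wild-type enrichment, with replicates averaged by inverse-variance weighting. That logarithm is base 2, and Illumina-sequenced genotypes needed ≥10 input reads and ≥1 read per output.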

Row | Variant | polymerase ribozyme fitness (log ratio)
1 | A2G C11U G48C U92A | -4.56
2 | A2G C13G C82G U129C | -1.79
3 | A2C A37U G48A U54A C73A C79G A119U G128U | -5.61
4 | A2G C15G | -3.2
5 | A2G C89G G110U | -4.03
6 | A2G C22G A26G A84U G122A U130C | -5.4
7 | A2G A6G C8A A46C U87C | -0.00636
8 | A2C C13U G77A C123U | 0.26
9 | A2G C11U C22G C62U U130A | -4.9
10 | A2C C8G G48U G71A C101U | -2.14
11 | A2C G69A | -3.57
12 | A2G C20U G60C | -1.66
13 | A2G C73U G113A C114G A119U U126G | -5.02
14 | A2C C73A | -1.09
15 | A2G C8G C22U | -5.08
16 | A2G G10A C53U C62U A90G | -0.379
17 | A2C G36C C62U | -2.66
18 | A2G C12A C85A G113C | -5.2
19 | A2C C123U G128C | -0.305
20 | A2G A5C C11A G71U C99U | -3.65
21 | A2C C4A U7C G44A C56G C94U | -1.93
22 | A2C U112A G127A | -0.337
23 | A2G C49U C62A C94G | -4.35
24 | A2C U96A | -3.03

Row | Variant | polymerase ribozyme fitness (log ratio)
25 | A2C C49G | -2.18
26 | A2G C62A C85A | -3.14
27 | A2C U33A G60A G71U C115U | -6.78
28 | A2G C13U A46U C62A C86A G113U G120U C123G | -6.73
29 | A2G C88A G93A C115A G117U | -6.36
30 | A2C U59A G122A | -2.15
31 | A2G C13G | 0.491
32 | A2G C8A G63A G110A | -3.11
33 | A2C G60A C82U | -2.16
34 | A2G C73A A90G A105G | -2.1
35 | A2C C53G C70G | -5.19
36 | A2C C12A G110A U133A | -2.17
37 | A2C G69A C101U C104U G113A G127C U129C | -5.09
38 | A2C C4G G39C G69U C102U | -2.39
39 | A2C U109G C114U U129G | -5.24
40 | A2G C72U | 0.0702
41 | A2G A41U G120U | -1.2
42 | A2C G120A C123A | -0.977
43 | A2C A41C | -2.75
44 | A2G C4A U7C G47C C56A A68G C99A G110U C115G G117C U129A | -7.47
45 | A2C C13U C86U G110U G120C | -4.02
46 | A2G C70U | -0.43
47 | A2G C70A | -1.82
48 | A2G C12A C15U G45U U106A | -3.92

Row | Variant | polymerase ribozyme fitness (log ratio)
49 | A2C C72A C114G | -4.02
50 | A2G C12U A66G C79A G122A | -2.62
51 | A2G C53A G60A A105C | -4.11
52 | A2C C4A U9G C12G C104U U116C U133A | 0.375
53 | A2C U112A | -0.421
54 | A2C C86U | -1.99
55 | A2C C56A G63A | -4.79
56 | A2C C64U | -1.07
57 | A2G C56G C70G U112A | -3.63
58 | A2G C62U G110A C114G C124A | -7.09
59 | A2C U21A | -2.19
60 | A2G C8G A43G G69C C98A C123A | -7.53
61 | A2G C13G A37U C49A C53A A100G C114A C124A | -7.24
62 | A2C U130A | -2.07
63 | A2G G17A | -2.9
64 | A2G C101G | -1.53
65 | A2C A27G A29U G77A G113A C124G | -3.05
66 | A2C U7C C15U C72U A105U | -3.49
67 | A2C G63U A100U U133G | -3.47
68 | A2C A18U C124A | -3.22
69 | A2C C3G C28G C82G A121C G128C | -4.07
70 | A2C U7C G113U G120C | -4.07
71 | A2C G36A U54C | -2.04
72 | A2G C34A A46G C73A | -2.49

Row | Variant | polymerase ribozyme fitness (log ratio)
73 | A2G C85U A95G | -2.08
74 | A2G C89A | -2.01
75 | A2G C70A C123U | -0.0496
76 | A2C C4U G36U C104U | -2.28
77 | A2G C88A A100U C115U | -3.59
78 | A2G C15U A43U G45U C56U C62U | -6.15
79 | A2G C3A G39U U59A A105C U106A C123G | -2.32
80 | A2C C70U A91C C101U U112A U129C | -4.54
81 | A2G C13A A43U G51U C64U A83U A84G | -6.26
82 | A2C C3G A90G | -3.04
83 | A2G C13A A68U C85A A103U G117U | -6.8
84 | A2C | -1.4
85 | A2G | -0.0197
86 | A2C G47A G93U | -5.29
87 | A2C G120U C124A U131G | -1.15
88 | A2G C62U U78A A103C | -5.9
89 | A2C C4A A5C U125G | -0.48
90 | A2C G60C | -1.65
91 | A2C C76U U126A | -1.99
92 | A2C G61C A121C | -1.16
93 | A2C G120U | -0.948
94 | A2C G120C | -0.618
95 | A2G A111C U112G G113U U116A C124A | -2.74
96 | A2C C4G G51C C101A | -6.08

Row | Variant | polymerase ribozyme fitness (log ratio)
97 | A2C G52A | -2.22
98 | A2G C13U A41C G48C U78G A111G | -1.71
99 | A2C C40U G60U C62G | -3.56
100 | A2C C13A C72U | -4.81
101 | A2C G127U | -1.27
102 | A2C C28U U87C | -3.82
103 | A2G A29G G120A C123G | -0.383
104 | A2C U38A C56A G113C U129A | -4.44
105 | A2G C123U | 1.06
106 | A2G A41U A46U | -3.37
107 | A2C U21G C72A G77U | -4.23
108 | A2C C11U C15U U55G A90G A121G | -0.451
109 | A2C A37C C94U U96A U112C C114U | -4.55
110 | A2C C8A C72U C123U | -0.16
111 | A2C C4G C114A | -3.53
112 | A2C C86U A90C | -4.21
113 | A2C U54A C72G C104U G113A | -2.82
114 | A2G C86G U126C | -2.8
115 | A2C C4U G10A G57C G61U | -2.37
116 | A2G A27G G52U G63C U87C | -2.6
117 | A2G C8U | 0.157
118 | A2G C12U A43U G44U C115U | -2.29
119 | A2G C56G C89G A90C | -2.84
120 | A2C C101U | -1.67

Row | Variant | polymerase ribozyme fitness (log ratio)
121 | A2C C101A | -2.7
122 | A2G C12A | -0.474
123 | A2G A50U G57C G60C C85G G113A | -2.81
124 | A2G C20U G36C C123U | -1.11
125 | A2C C11U C114G | -4.14
126 | A2C G17A G44C G45A C86U U109A U131C | -7.35
127 | A2C G39C G69U U112C | -0.882
128 | A2G C40G G45U G52A C124G | -2.61
129 | A2G C114U G120U | -3.07
130 | A2G C88U | -0.191
131 | A2G C13U G69C | -0.807
132 | A2C C11U | -2.65
133 | A2C C11A G60A G69U C89G G122A | -3.67
134 | A2C U14G A37C C49G G60C U96A A111U | -6.59
135 | A2G C72U A74U C102U U130A | -3.21
136 | A2G A91U U96G G120U | -2.53
137 | A2G C8G U96A G135U | -1.73
138 | A2G C28U | -2.27
139 | A2C G71U G93A U112A G113C | -4.56
140 | A2G C62A | -0.128
141 | A2C C12A C104U | -1.93
142 | A2C C72U G117A | -3.25
143 | A2G C40A C89U | -1.58
144 | A2G C15G G44A C62A A90C C97U G120A | -3.89

Row | Variant | polymerase ribozyme fitness (log ratio)
145 | A2C C13A C22A C49G G63C C123U | -5.96
146 | A2C C98U | -3.19
147 | A2C C13A | -2.71
148 | A2G C13A C72U U129G | -2.36
149 | A2C C11U G61A G120A | -0.476
150 | A2C G71C C99A A105U A111G | -6.44
151 | A2G C11G G42A C89G | -4.87
152 | A2C G39U A41C C56G C101A C123G | -4.81
153 | A2C C11G G17U G51C U55C C56G | -4.03
154 | A2C C3U C56G G69U | -4.15
155 | A2G C49U C79A C86G | -2.96
156 | A2G A6C C56U | 0.182
157 | A2C G61C | -3.02
158 | A2G C11A G71U A90U U130A U133G | -2.92
159 | A2G C20G G71C G113C | -3
160 | A2C U7G A43C G63C C115U | -4.87
161 | A2C C114U | -3.24
162 | A2C C114A | -3.32
163 | A2G A41C G42A C82G C89A U92G G120U | -5.77
164 | A2G C102A C114U | -4.44
165 | A2C C115A | -1.3
166 | A2G C13U C53G C72G | -0.413
167 | A2C A5C C64U C114G C124A | -3.6
